In paper PMC11629141:

Columns and labels:
[1] = molecular target: FcγRIIB on Raji cells (human (endogenous in Raji)) (UniProt P31994); assay: flow cytometry on cells; 250.000 Raji cells (FcγRIIB+, CD20+) with 6G11 or light chain constructs 1000-0.005 nM (1:5 dilutions), 30 min RT in PBS-B; anti-human Fc PE secondary antibody
[2] = molecular target: 6G11 (BI‐1206), full‐length antibody containing the PGLALA Fc mutations (human); assay: BLI; 6G11 or light chain construct (5 µg/mL) loaded on Protein A biosensors; FcγRIIB 125 to 15.6 nM in 1:2 dilutions, 60 s association, 40 s dissociation in kinetics buffer
Chain of 6G11 (BI‐1206), full‐length antibody containing the PGLALA Fc mutations (human) (heavy, as listed by the source, chain 1 of 2): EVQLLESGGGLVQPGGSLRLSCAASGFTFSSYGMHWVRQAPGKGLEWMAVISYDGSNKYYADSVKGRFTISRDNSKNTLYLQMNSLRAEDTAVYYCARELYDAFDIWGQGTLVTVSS
Chain of 6G11 (BI‐1206), full‐length antibody containing the PGLALA Fc mutations (human) (light, as listed by the source, chain 2 of 2): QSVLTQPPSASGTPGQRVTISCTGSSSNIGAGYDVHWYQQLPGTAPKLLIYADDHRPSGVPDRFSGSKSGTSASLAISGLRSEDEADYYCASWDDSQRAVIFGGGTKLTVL

[3] = molecular target: S2B‐6G11 post MMP‐9 digestion and partial removal of the scFv on a 6G11‐based affinity column (human); assay: as above
Chain of S2B‐6G11 post MMP‐9 digestion and partial removal of the scFv on a 6G11‐based affinity column (human) (heavy, as listed by the source, chain 1 of 2): as the sequence (heavy, as listed by the source, chain 1 of 2) above
Chain of S2B‐6G11 post MMP‐9 digestion and partial removal of the scFv on a 6G11‐based affinity column (human) (light, as listed by the source, chain 2 of 2): as the sequence (light, as listed by the source, chain 2 of 2) above

[4] = molecular target: S2N‐6G11 (S2N scFv fused to the N‐terminus of the 6G11 light chain via an MMP‐9 cleavable linker), prior to MMP‐9 digestion (human | chicken); assay: as above
Chain of S2N‐6G11 (S2N scFv fused to the N‐terminus of the 6G11 light chain via an MMP‐9 cleavable linker), prior to MMP‐9 digestion (human | chicken) (heavy, as listed by the source, chain 1 of 4): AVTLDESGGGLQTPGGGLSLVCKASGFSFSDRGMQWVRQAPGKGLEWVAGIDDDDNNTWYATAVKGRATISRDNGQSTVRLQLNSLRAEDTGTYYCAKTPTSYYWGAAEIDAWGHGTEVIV
Chain of S2N‐6G11 (S2N scFv fused to the N‐terminus of the 6G11 light chain via an MMP‐9 cleavable linker), prior to MMP‐9 digestion (human | chicken) (heavy, as listed by the source, chain 2 of 4): as the sequence (heavy, as listed by the source, chain 1 of 2) above
Chain of S2N‐6G11 (S2N scFv fused to the N‐terminus of the 6G11 light chain via an MMP‐9 cleavable linker), prior to MMP‐9 digestion (human | chicken) (light, as listed by the source, chain 3 of 4): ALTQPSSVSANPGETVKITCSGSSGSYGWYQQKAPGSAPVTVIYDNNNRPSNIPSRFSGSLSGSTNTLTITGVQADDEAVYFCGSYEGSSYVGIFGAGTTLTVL
Chain of S2N‐6G11 (S2N scFv fused to the N‐terminus of the 6G11 light chain via an MMP‐9 cleavable linker), prior to MMP‐9 digestion (human | chicken) (light, as listed by the source, chain 4 of 4): as the sequence (light, as listed by the source, chain 2 of 2) above

EC50 [1] [nM] | Kd [2] [nM] | Kd [3] [nM] | Kd [4] [nM] | Substance
0.4 |  |  |  | 6G11 (BI‐1206), full‐length antibody containing the PGLALA Fc mutations
 | 32.1 | 5.9 | 8.3 | His‐tagged human FcγRIIB extracellular domain protein (from UniProt P31994 43-217) (domain or fragment)
